Measurements from publication PMC4197964 (Genes & Development, 2014).

Biological target: MBP-Spt16 (budding yeast, UniProt P32558 1-1035)
Assay: pull-down

Chain of MBP-Spt16 (P32558 whole entry): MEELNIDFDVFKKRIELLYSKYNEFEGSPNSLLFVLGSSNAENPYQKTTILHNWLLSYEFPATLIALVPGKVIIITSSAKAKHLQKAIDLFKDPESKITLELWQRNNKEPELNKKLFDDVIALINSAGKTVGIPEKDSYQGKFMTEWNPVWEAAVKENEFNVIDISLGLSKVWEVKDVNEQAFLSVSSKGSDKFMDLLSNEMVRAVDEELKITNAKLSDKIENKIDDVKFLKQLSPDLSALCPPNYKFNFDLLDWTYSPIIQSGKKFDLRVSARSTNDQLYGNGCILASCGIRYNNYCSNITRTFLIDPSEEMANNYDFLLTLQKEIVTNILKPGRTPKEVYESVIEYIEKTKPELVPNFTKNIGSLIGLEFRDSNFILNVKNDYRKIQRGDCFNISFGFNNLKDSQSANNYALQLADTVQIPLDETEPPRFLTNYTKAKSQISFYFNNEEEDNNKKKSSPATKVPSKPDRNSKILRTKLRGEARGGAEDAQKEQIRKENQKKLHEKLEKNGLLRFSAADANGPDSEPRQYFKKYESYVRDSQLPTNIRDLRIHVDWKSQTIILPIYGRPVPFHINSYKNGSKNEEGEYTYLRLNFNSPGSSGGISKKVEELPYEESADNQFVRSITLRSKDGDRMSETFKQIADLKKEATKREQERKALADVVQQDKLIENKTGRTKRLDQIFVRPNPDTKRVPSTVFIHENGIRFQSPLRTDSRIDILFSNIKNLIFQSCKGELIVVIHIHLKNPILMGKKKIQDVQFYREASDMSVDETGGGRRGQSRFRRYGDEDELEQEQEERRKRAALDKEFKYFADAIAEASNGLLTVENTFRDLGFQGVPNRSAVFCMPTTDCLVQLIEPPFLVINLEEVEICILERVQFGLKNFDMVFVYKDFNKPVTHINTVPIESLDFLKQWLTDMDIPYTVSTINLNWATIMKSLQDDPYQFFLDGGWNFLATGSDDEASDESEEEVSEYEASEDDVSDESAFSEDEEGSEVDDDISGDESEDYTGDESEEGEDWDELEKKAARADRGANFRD

binding result: binds
B1: GST-Psh1, full-length [FL (1-406)] (enzyme, budding yeast, UniProt Q12161 1-406, looked up)
chain: MGDELHNRLLHQNDGTKDAILYKIIESLVCSICHDYMFVPMMTPCGHNYCYGCLNTWFASNTQKELACPQCRSDITTIPALNTTLQQYLSFILEKLRDQNDESFKKLLTTKTKEENDYKNDKEKDTLFDKVFKNSALAVADDSDDGITRCSNCHWELDPDEVEDGNVCPHCNARIRNYAGGRDEFDEEEYSEGELDEIRESMRRRRENRFASTNPFANRDDVSSEDDDSSEEEPMREHIPLGRWARSHNRSIAVDAVDDEDDEEEDEEEEEEMDSDLKDFIEDDEDDEDEDGSRRNLVLSALKNRHVIITDDEEEEQRRHATEEEDRDSDFYEHNDDGFVSGDSLDEDQKEVTRIQSSSDSEDRSLSYSGSSDVKDNNDDNTEELDDPQPKRQKRFRVVLGDSDDE
